# B1: GST-IPA1 (natural protein, rice (Oryza sativa L.), UniProt Q7EXZ2 1-417, looked up)
# chain: MEMASGGGAAAAAGGGVGGSGGGGGGGDEHRQLHGLKFGKKIYFEDAAAAAGGGGTGSGSGSASAAPPSSSSKAAGGGRGGGGKNKGKGVAAAAPPPPPPPPRCQVEGCGADLSGIKNYYCRHKVCFMHSKAPRVVVAGLEQRFCQQCSRFHLLPEFDQGKRSCRRRLAGHNERRRRPQTPLASRYGRLAASVGEHRRFRSFTLDFSYPRVPSSVRNAWPAIQPGDRISGGIQWHRNVAPHGHSSAVAGYGANTYSGQGSSSSGPPVFAGPNLPPGGCLAGVGAATDSSCALSLLSTQPWDTTTHSAAASHNQAAAMSTTTSFDGNPVAPSAMAGSYMAPSPWTGSRGHEGGGRSVAHQLPHEVSLDEVHPGPSHHAHFSGELELALQGNGPAPAPRIDPGSGSTFDQTSNTMDWSL
# notes: Ideal Plant Architecture 1 (IPA1, SPL14), rice; full-length CDS in pGEX-6p-1; source: E. coli (pGEX-6p-1), purified
# Molecular target: T1, HisTrx-D53 (rice (Oryza sativa L.), UniProt Q2RBP2 1-1131)
# T1 construct: DWARF 53 (D53), rice; full-length CDS in an E. coli expression vector (pDEST51); also called HisTrx-D53 fusion protein; source: E. coli, purified
# T1 sequence (looked up): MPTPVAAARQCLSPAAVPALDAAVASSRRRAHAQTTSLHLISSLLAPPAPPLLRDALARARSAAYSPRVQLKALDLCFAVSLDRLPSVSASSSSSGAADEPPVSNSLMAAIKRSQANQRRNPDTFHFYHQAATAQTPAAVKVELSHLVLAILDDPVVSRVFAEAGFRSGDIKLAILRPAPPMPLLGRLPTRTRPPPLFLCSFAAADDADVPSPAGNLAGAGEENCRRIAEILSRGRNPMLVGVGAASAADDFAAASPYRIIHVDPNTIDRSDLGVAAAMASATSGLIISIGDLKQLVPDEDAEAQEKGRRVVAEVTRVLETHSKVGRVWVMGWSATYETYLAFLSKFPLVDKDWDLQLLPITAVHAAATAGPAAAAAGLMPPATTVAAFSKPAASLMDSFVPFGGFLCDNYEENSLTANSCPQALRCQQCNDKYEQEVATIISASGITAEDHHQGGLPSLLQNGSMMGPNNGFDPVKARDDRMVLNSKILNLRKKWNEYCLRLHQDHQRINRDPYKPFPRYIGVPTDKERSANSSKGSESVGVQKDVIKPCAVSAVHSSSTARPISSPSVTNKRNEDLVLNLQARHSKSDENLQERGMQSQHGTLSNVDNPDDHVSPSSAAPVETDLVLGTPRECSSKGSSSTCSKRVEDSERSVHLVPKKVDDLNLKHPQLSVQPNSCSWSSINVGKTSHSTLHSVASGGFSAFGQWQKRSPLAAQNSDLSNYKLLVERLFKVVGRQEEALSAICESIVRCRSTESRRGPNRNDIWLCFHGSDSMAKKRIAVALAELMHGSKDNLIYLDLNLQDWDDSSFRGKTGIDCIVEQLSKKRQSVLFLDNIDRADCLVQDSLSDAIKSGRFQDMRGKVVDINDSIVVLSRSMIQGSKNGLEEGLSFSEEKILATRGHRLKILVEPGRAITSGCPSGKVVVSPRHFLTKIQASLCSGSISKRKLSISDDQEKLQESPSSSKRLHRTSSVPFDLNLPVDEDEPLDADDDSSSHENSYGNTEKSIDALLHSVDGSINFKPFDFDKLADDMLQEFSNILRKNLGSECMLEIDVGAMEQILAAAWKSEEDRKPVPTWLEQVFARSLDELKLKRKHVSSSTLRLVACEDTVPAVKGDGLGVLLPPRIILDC
# Experiment: pull-down; GST pull-down with HisTrx-D53 and GST-IPA1, both purified from bacteria; D53 detected by anti-D53
# Settings: both partners purified
binder,measurement,value
B1,binding result,binds
